According to FireProtDB (doi:10.1021/bi00107a010):

Conditions: Hordeum vulgare, Thermal, DSC, glycine-HCl 10 mM, reversible: yes, whole UniProt chain shown; for heat capacity change of unfolding / unfolding free energy: 25 °C

B1: wild type, Q40059 (protein)
chain: MSSMEKKPEGVNIGAGDRQNQKTEWPELVGKSVEEAKKVILQDKPAAQIIVLPVGTIVTMEYRIDRVRLFVDRLDNIAQVPRVG
heat capacity change of unfolding (pH 2.2): 0.79 kcal/mol/K | unfolding free energy (pH 2.2): 1.94 kcal/mol | heat capacity change of unfolding (pH 2.5): 0.79 kcal/mol/K | unfolding free energy (pH 2.5): 2.79 kcal/mol | heat capacity change of unfolding (pH 2.8): 0.79 kcal/mol/K | unfolding free energy (pH 2.8): 3.73 kcal/mol | heat capacity change of unfolding (pH 3.2): 0.79 kcal/mol/K | unfolding free energy (pH 3.2): 5.2 kcal/mol | heat capacity change of unfolding (pH 3.5): 0.79 kcal/mol/K | unfolding free energy (pH 3.5): 6.48 kcal/mol

B2: Subtilisin-chymotrypsin inhibitor-2A wild type, P01053 (protein)
chain: MSSVEKKPEGVNTGAGDRHNLKTEWPELVGKSVEEAKKVILQDKPEAQIIVLPVGTIVTMEYRIDRVRLFVDKLDNIAQVPRVG
Tm (pH 2.2): 41.6 °C | unfolding enthalpy (calorimetric) (pH 2.2): 43.5 kcal/mol | unfolding enthalpy (van 't Hoff) (pH 2.2): 42.3 kcal/mol | Tm (pH 2.5): 47.2 °C | unfolding enthalpy (calorimetric) (pH 2.5): 49.2 kcal/mol | unfolding enthalpy (van 't Hoff) (pH 2.5): 45.5 kcal/mol | Tm (pH 2.8): 55.2 °C | unfolding enthalpy (calorimetric) (pH 2.8): 52.8 kcal/mol | unfolding enthalpy (van 't Hoff) (pH 2.8): 51.1 kcal/mol | Tm (pH 3.2): 64 °C | unfolding enthalpy (calorimetric) (pH 3.2): 61 kcal/mol | unfolding enthalpy (van 't Hoff) (pH 3.2): 60.8 kcal/mol | Tm (pH 3.5): 71 °C | unfolding enthalpy (calorimetric) (pH 3.5): 67.5 kcal/mol | unfolding enthalpy (van 't Hoff) (pH 3.5): 68.8 kcal/mol
